experiment: soluble on expression in E. coli; label from the status in PepcDB or PDB records

Soluble on expression in E. coli, not soluble:
MGSDKIHHHHHHMDIKLKDFEGPLDLLLHLVSQYKVDIYEVPIVEVIEQYLNYIETLQVMKLEVAGDYMLMASQLMLIKSRRLLPKVVEHIEEDLEQDLLEKIEEYSRFKAVSQALAKQHDQRAKWYSKPKQELIFEDAILQEDKTVMDLFLAFSNIMAAKRAVLKNNHTVIERDDYKIEDMMASIKQRLEKENVIRLSAIFEECQTLNEVISIFLASLELIKLHVVFVEQLSNFGAIILRKEKK, MGSDKIHHHHHHMDIKQLKYFVEIVKSGFNLSIASKTLHISQPALSQIIKNFEESEDVYLFERYKGRLNGLTPAGERFYVNAEHIINEYKNMMEDLREDSVQFKGKVRIGIPPLILGIAFSDVVAQLVANNPDIEFDIVEKGAYDLNRMLILQELDYAVLLHPHKIDKSVVTEHVLQEDELTAFLNINHPLAKKDKIDWNDLNEQLLAIFNPTFMIHHKLMQKFTDENVKLKRYIMSGSWDFLLLSTTNSDFITILPSPVHDFFENSKIIEKPFNHPITWKVILCRPKKERYSHVDQHVFKFIIDFFSKKNS, MGSDKIHHHHHHMDILLANPRGFCAGVNRAIQIVDRALELFGAPIYVRHEVVHNRHVVEDLRARGAIFVEELDEVPDAATVIFSAHGVPIAVREHAAARGLSVFDATCPLVTKVHMEVKKYSRDGMEMVLIGHAGHPEVEGTMGQVEEGMMYLVSNVSDVATLAPRNPDKLAYITQTTLSMDDTAEVIVALRSRFPLIEGPKKDDICYATQNRQDAVKSLAPDVDILLVVGAPNSSNSSRLAELGTRLGTQTHLIEDAQQLRREWFEGVGKIGISAGASAPESLVQEIMDTLRGWGARVPQEMPGVEEKVTFSLPLALIQAQTRREGA, MGSDKIHHHHHHMDIQKIAKFFEQLQNQDFAQWEDCFGKYDVEFSDDTAETFSQSCDHVVLFNNRLSKVMLLKTSDSILSIGGFQAHNRGKIEAKNRKKTLITIPTQLANDSFGTNRYSLQDNERKPSMGGIYPCKTIFDFSILLSNEIEKSLWGIGEYVGVYFSIIDYSSKYQENFEELIAWTVEQIDELSSLLKREDNRTILRRIASLLTVKCLIMRSNGNHEIGCSIDHSFARYLENKIQIPHGKAVYLGSLLTLLFYPEWEDKGLSLEKLFKIGHYVGITMSDIQYLKTQDFSTLVKEASLLRPKRSFSLDQIQEGEAMRIKKAKERANMITQIWDR, MGSDKIHHHHHHMDIRSLKLYLHLCDSLHFAKTAEQMHMSPSTLSRTLQRLEDEVGGKLFERDNRSVALTHAGKEFKLFAEHTLSQWLSLKGKVDPQQAQLHGQLSLYCSVTAAYSHLPKLLDRFRSIHPNVDIKLATGDAANAVNELNRNRADIAIIALPDNLASSLFFTAIDKVPLSLIVPTITCPVQQAISQANIAWQDLPYIVPEHGPGRQRADNWFKAMGFKPNIYAQVAGQEAIASMVALGCGVAISPEVVINNSPVRDRIQMLASPITIPAFELGFCCKKKRLEEAVLKAFLASWAIE, MGSDKIHHHHHHMDISRKIERLELFLEQDKDNLNLMLDLIYLSLDAGSIDIAENYLYRAQQQHPESSQLIYLSGLISCQRKNFEQGLITFNSLLSAGVRSASILYQAAYCNIQLGNPETALERLIHASELSPETEILYLLARTQYQLKNFELAVSTLTALADSDAKYAPAHSLLSQIYMDIEQWADAQASAAKALALDPNNVTANITIGFITLNSNQYDQAARHFSQALNVNDESCRTHLGLAIIDVFQQRYVEAEQHLLKALSLQNDLLPGINLLGWLYLLTDRFALARDVFDRGVEVDRSYAEMYGGIAIVDILEKDETAARKNVAIALRLDKMSYAGNFAKILLLQNAQRLSQAEKVWKNLISSPIDDTGKTLEQAVIEQIRAYLKVTLH, MGSDKIHHHHHHMDKRNSCYLCFGFQSRILARESALMDTQSLQAFLAVADHGSFSLAAEQLHLTQPAVSKRIAGLEGQVGAQLFDRLNRRVTLTEAGRTLLPRARQILVMFDDSRRALSNLSGDISGSLTMATSHHVGLHRLPPLLKAYTQAYPDVRMDMRFLDSEQAYQGVLDGDLELAVVTLAPVPDPALTVVPVWIDQLRFVCGREHALAGRDTVALSALSDYDAVLPGHLTFTRGIVVDTFARDGLQVNVSLSTNYLETLKMMVAIGLGWSVLPETMIDDEIEVIPIDHRPIQRPLGYLFHKSRTLSNAARAMLEMLDAARDTTARQWV, MGSDKIHHHHHHMDLASRLLLLLEVSELGSFVKVSELRNVNRSAISKQIGKLEKELGVHLLNRTTRSLSLTAAGSEMVNQAKQLRDLLNNSKRLAENYHSEPRGELKISSSTLFGRQYVQQAVLKFQAQYPDIRIELLLEDRIVDLVGEGFDIGFRIGEPKESNLIAKQIAQNRLLIVAAPSFIEKHGKPTTIPKLESLPAVVYSAQGLLIDKIKYLDNTGNEAFIQLNTAYKVNEVEMLINTAVAGEMLTVTTAQMIENEVLEGKLIPIMTHINLADYGTFYAVYPHRNSPLKTKLFIETLKEVVGDKRPIWETRIPGFDKMYNNKT, MGSDKIHHHHHHMDLQYLDNFLALAHYRSFSAAADACYISQSSFSKRIMRLENNLGVTLFERSTRQVSLTEYGQIYLKYAQQIKTLSRQATDEINRRHAEDEGIVIGGIPSISEYGILDLISGFIKTTHIHCQVKSAPSEDLEPMLLNQTLDFAFIKEVHHTNLFYQLPYAEDHLVAVLPANHPLANLSEIKLQQLANEDFIFQPVNSRPYELCMMICKQNGFTPNVIYADRIIENILNFVKKGLGVSLLMEKLVPKDSELICLPIHPAVVADINLCYLKKEPLSQYGYAFLNYFSHQNNAR, MGSDKIHHHHHHMDLYQEELIKKISAITPFYIVGGTVRDHLLNRPGKDVDGIIPIPLEELEKHLREWGYHPLKIGAKHQTLSVFQQGQRMDINFFDGDLEADALRRDFTINAVFQDARTGELIDPLQGREDLENKLLRACGNPWERFREDPVRILRMVRFSVQYGMDIEEDTFRSAQSLLPELKHVASERTSEELGRILTLADPAAGIRLLNELGYLTLYLPELVRLQGLAQNRYHTKDAWEHTLQVLANTPPQPILRLAGLFHDLGKWEVASRECYVWGKCWAEDKGYYIGEYRILGRQLHRYHGDYVEVHGTRLDHYPQVIQVKRIRKDPSCRRGFEWVRDGKRHFLGHEKESGRLTRQILARFRLAMVLGKEGEGGEKELLWLIENHMSGTLSFIAELRGEGSALQLNQKVRQFVWEKGWDGRSYRLTRVDQLLELWRADFYGGKKREPKEEQIFEELLEKLHQTNKAVQKRHQELEWGELEKFAQEHKIKGREWGDFKESLRKTRVVSVDWIPLTTGFLEKEYKHFKGRNYAKRERE, MGSDKIHHHHHHMDNKELKAFCNLIGLNCVGVAGVDKYDNLEKILKDRQQKGYLTGMEEPIIENRINPRHIMKDANSIIVCAFPYHINRQEKNKNSNLSKYCHGKDYHIVVKDFLQQICDYISKTVTDFKYKLFADNGPLVDRYLAYLSGIGYFGINNNIITDEYGSYVFIGYIVNNYKFEEDKPLEKSCFKCGKCVKYCPGNAILGNYDMNPKKCLSYITQKKGDLSEKEKVVLKNGKKVFGCDICQEVCPHNVEIPTTHILEFKENIIDYLDYDEIQNISNKEFKRRYGDRAFSWRGRNIIKRNMEIILDKYDD, MGSDKIHHHHHHMDRLIYTAMTGLKHIMEQQSTTANNLANATTTGFRAQIDSFRAVPVLSDGLPTRAFVVDATVGTNFNSGVINTTGRELDLAIRDQGWFAVQRPDGTEAYTRNGNFKLNENGVLQTQDGMMVLGDNGPITIPLEAKVAFANDGMVSAVATNVVPLFTNMIGRLKLVNPGDDNLVRGPDGLFETRNREPVPASANVTIVSGALEGSNVNVVEEMVNMISQARQFDLQTKLIQNAENNATKAGQIFSLS, MGSDKIHHHHHHMDRYRGNAEAVKNLVRGHAVHRDVYVDKEVFDLEMEQLFPNSWVYVGHESQLKDPGDYITSKIGHQPILISRHKNGTIHVLHNRCPHKGVKIASEPCGNTGKFFRCPYHAWSFKTDGSLLAIPLKKGYEGTGFDNDRAKDGLPRVENVHIYRGFIFARLSDTGLSFEDYFGDSLSTIDNMVDRSPKGEVEIIAAPIRYMHTCNWKMLVDNQTDTCHPMVAHESSAGTAVSVWEREKHRFTETPMAVQLYAPFMSPYEFYESAGIRVWPNGHGHSGVSGSIHQDYDDVDGYLEMMVEAYGETRAREILGDIRHNTLYFPNVMVKGPVGILRNFIPVAVDRTLVESWAFRLVGAPDKIYERALMYNRFINAPTSIVGHDDLEMYERAQEGLLSDANEWINLRRLYEEGEPEDVTEVVNGTSERQMRNTFYAWRKFMVQGMEQKQEVSA

— the DeepSol protein solubility set
